Drawing on the RNAGym collection of RNA variant scans (doi:10.7554/elife.80360), this text covers self-cleavage for 32 variants.

Sequences and labels used below:
B1: HDV Ribozyme (parent)
chain: GGCCGGCAUGGUCCCAGCCUCCUCGCUGGCGCCGGCUGGGCAACAUUCCGAGGGGACCGUCCCCUCGGUAAUGGCGAAUGGGACCCA

In this data set the parent is B1. Description: self-cleavage, relative activity (ratio to wild type); higher = more cleavage; co-transcriptional.
Turning to GGCCGGCAUGGUCCCAGCCUCGUCGCUGGCGCCGGCUGGGCAACAUUCCGAGGGGACCGUCCCCUCGGUAAUGGCCAAUGGGACCCA [C22G G76C], the self-cleavage is 0.151.
The value for GGCCGGCAUGGUCCCAGCCUCGUCGCUGGCGCCGGCUGGGCAACAUUCCGAGGGGACCGUCCCCUCGGUAAUGGCUAAUGGGACCCA [C22G G76U] was 0.089; that for GGCCGGCAUGGUCCCAGCCUCGUCGCUGGCGCCGGCUGGGCAACAUUCCGAGGGGACCGUCCCCUCGGUAAUGGCGAAUGUGACCCA [C22G G81U] was 0.089.
The value for GGCCGGCAUGGUCCCAGCCUCGUCGCUGGCGCCGGCUGGGCAACAUUCCGAGGGGACCGUCCCCUCGGUAAUGGCGAAUGCGACCCA [C22G G81C] was 0.
For the variant GGCCGGCAUGGUCCCAGCCUCUUCGCUGGCGCCGGGUGGGCAACAUUCCGAGGGGACCGUCCCCUCGGUAAUGGCGAAUGGGACCCA [C22U C36G], the self-cleavage worked out at 0.162.
The value for GGCCGGCAUGGUCCCAGCCUCUUCGCUGGCGCCGGUUGGGCAACAUUCCGAGGGGACCGUCCCCUCGGUAAUGGCGAAUGGGACCCA [C22U C36U] was 0.254.
On to GGCCGGCAUGGUCCCAGCCUCGUCGCUGGCGCCGGCUGGGCAACAUUCCGAGGGGACCGUCCCCUCGUUAAUGGCGAAUGGGACCCA [C22G G68U], for which the self-cleavage is 0.0583.
GGCCGGCAUGGUCCCAGCCUCGUCGCUGGCGCCGGCCGGGCAACAUUCCGAGGGGACCGUCCCCUCGGUAAUGGCGAAUGGGACCCA [C22G U37C]: the self-cleavage amounted to 0.136.
As to GGCCGGCAUGGUCCCAGCCUCGUCGCUGGCGCCGGCGGGGCAACAUUCCGAGGGGACCGUCCCCUCGGUAAUGGCGAAUGGGACCCA [C22G U37G], the self-cleavage stood at 0.0831.
The value for GGCCGGCAUGGUCCCAGCCUCGUCGCUGGCGCCGGCUGGGCAACAUUCCGAGGGGACCGUCCCCUCGGUAAUAGCGAAUGGGACCCA [C22G G73A] was 0.0692; that for GGCCGGCAUGGUCCCAGCCUCGUCGCUGGCGCCGGCUGGGCAACAUUCCGAGGGGACCGUCCCCUCGGUAAUUGCGAAUGGGACCCA [C22G G73U] was 0; that for GGCCGGCAUGGUCCCAGCCUCGUCGCUGGCGCCGGCUGGGCAACAUUCCGAGGGGACCGUCCCCUCGGUAAUCGCGAAUGGGACCCA [C22G G73C] was 0.0845.
For GGCCGGCAUGGUCCCAGCCUCUUCGCUGGCGCCGGCUGGGCAACAUUCCGAGGGGACCGUCCCCUCGGUAUUGGCGAAUGGGACCCA [C22U A71U] the value was 0.587; for GGCCGGCAUGGUCCCAGCCUCUUCGCUGGCGCCGGCUGGGCAACAUUCCGAGGGGACCGUCCCCUCGGUAGUGGCGAAUGGGACCCA [C22U A71G], 0.506.
Turning to GGCCGGCAUGGUCCCAGCCUCGUCGCUGGCGCCGGCUGGGCAACAUCCCGAGGGGACCGUCCCCUCGGUAAUGGCGAAUGGGACCCA [C22G U47C], the self-cleavage is 0.18.
For GGCCGGCAUGGUCCCAGCCUCGUCGCUGGCGCCGGCUGGGCAACAUACCGAGGGGACCGUCCCCUCGGUAAUGGCGAAUGGGACCCA [C22G U47A] the value was 0.122.
The value for GGCCGGCAUGGUCCCAGCCUCGUCGCUGGCGCCGGCUGGGCAACAUUCCGAGGGGACCUUCCCCUCGGUAAUGGCGAAUGGGACCCA [C22G G59U] was 0.0817; that for GGCCGGCAUGGUCCCAGCCUCGUCGCUGGCGCCGGCUGGGCAACAUUCCGAGGGGACCGUCCCCUCCGUAAUGGCGAAUGGGACCCA [C22G G67C] was 0.132; that for GGCCGGCAUGGUCCCAGCCUCGUCGCUGGCGCCGGCUGGGCAACAUUCCGAGGGGACCGUCCCCUCGGGAAUGGCGAAUGGGACCCA [C22G U69G] was 0.108.
As to GGCCGGCAUGGUCCCAGCCUCUUCGCUGGCGCCGGCUGGGCAACAUUCCGAGGGGACCGUCCCCUCGGUAAUGGCGAUUGGGACCCA [C22U A78U], the self-cleavage is 0.197.
As to GGCCGGCAUGGUCCCAGCCUCUUCGCUGGCGCCGGCUGGGCAACUUUCCGAGGGGACCGUCCCCUCGGUAAUGGCGAAUGGGACCCA [C22U A45U], the self-cleavage turned out to be 0.325.
The value for GGCCGGCAUGGUCCCAGCCUCUUCGCUGGCGCCGGCUGGGCAACCUUCCGAGGGGACCGUCCCCUCGGUAAUGGCGAAUGGGACCCA [C22U A45C] was 0.113; that for GGCCGGCAUGGUCCCAGCCUCGUCGCCGGCGCCGGCUGGGCAACAUUCCGAGGGGACCGUCCCCUCGGUAAUGGCGAAUGGGACCCA [C22G U27C] was 0.
The value for GGCCGGCAUGGUCCCAGCCUCUUCGCUGGCGCCGGCUGGGCAACAUUCCGUGGGGACCGUCCCCUCGGUAAUGGCGAAUGGGACCCA [C22U A51U] was 0.708; that for GGCCGGCAUGGUCCCAGCCUCUUCGCUGGCGCCGGCUGGGCAACAUUCCGAGGGGACCGUCCCCUCGGUAAUGGCGAAUGGGACCCG [C22U A87G] was 0.737; that for GGCCGGCAUGGUCCCAGCCUCUUCGCUGGCGCCGGCUGGGCAACAUUCCGAGGGGACCGUCCCCUCGGUAAUGGCGAAUGGGACCCC [C22U A87C] was 0.665.
The value for GGCCGGCAUGGUCCCAGCCUCUUCGUUGGCGCCGGCUGGGCAACAUUCCGAGGGGACCGUCCCCUCGGUAAUGGCGAAUGGGACCCA [C22U C26U] was 0.847.
Take GGCCGGCAUGGUCCCAGCCUCUUCGGUGGCGCCGGCUGGGCAACAUUCCGAGGGGACCGUCCCCUCGGUAAUGGCGAAUGGGACCCA [C22U C26G]: the self-cleavage was found to be 0.492.
For GGCCGGCAUGGUCCCAGCCUCUUCGCUGGCGCCGGCUGGGCAACAUUCCGAGGGGACCGUCCCCUCGGUAAUGGCGAAUGGGACCCA [C22U] the value was 0.736; for GGCCGGCAUGGUCCCAGCCUCUUCGCUGGCGCCGGCUGGGCAACAUUCCGAGGGGCCCGUCCCCUCGGUAAUGGCGAAUGGGACCCA [C22U A56C], 0.525.
For GGCCGGCAUGGUCCCAGCCUCUUCGCUGGCGCCGGCUGGGCAACAUUCCGAGGGGUCCGUCCCCUCGGUAAUGGCGAAUGGGACCCA [C22U A56U] the value was 0.776; for GGCCGGCAUGGUCCCAGCCUCGUCGCUGGCGCCGGCUGGGCAACAUUCCGAGGGGACCGGCCCCUCGGUAAUGGCGAAUGGGACCCA [C22G U60G], 0.
